The record followed here is the RNAGym collection of RNA variant scans (doi:10.7554/elife.90254).

First the molecules themselves.
B1: OR4K15 (parent)
chain: GUUAACGGUCAUAGGCCAUGGAAACUAGGAGCACCAUUUCGCUGCCAGUGAAGAAAUGAACAAAGAAAAUCUGGGCCAGGCAGGCAUCAAAAGAAAUAGUCUUGCGCUCAACCAGAAAGUCUGUAAUCAUUUUAAGGGUA

Variants of B1 are the subject of this data set. Kind of data set: self-cleavage, relative activity (ratio to wild type); higher = more cleavage; in vitro, sequencing; the parent is a self-cleaving ribozyme.
Turning to GUUAACGGUCAUAGGCCAUGGAAACUAGGAGCACCAUUUCGCUGCCAGUGAAGAAAUGAACAAACAAAAUCUGGGCCAGGCAGGCAUCAAAAGAAAUAGUCUUGCGCUCAUCCAGAAAGUCUGUAAUCAUUUUAAGGGUA [G65C A111U], the self-cleavage was determined as 0.07.
In the case of GUUAACGGUCAUAGGCCAUGGAAACUAGGAGCACCAUUUCGCUGCCAGUGAAGAAAUGAACAAACAAAAUCUGGGCCAGGCAGGCAUCAAAAGAAAUAGUCUUGCGCUCAGCCAGAAAGUCUGUAAUCAUUUUAAGGGUA [G65C A111G] it was 0.01; in that of GUUAACGGUCAUAGGCCAUGGAAACUAGGAGCACCAUUUCGCUGCCAGUGAAGAAAUGAACAAAGGACAUCUGGGCCAGGCAGGCAUCAAAAGAAAUAGUCUUGCGCUCAACCAGAAAGUCUGUAAUCAUUUUAAGGGUA [A66G A68C], 1.13; in that of GUUAACGGUCAUAGGCCAUGGAAACUAGGAGCACCAUUUCGCUGCCAGUGAAGAAAUGAACAAAGGAGAUCUGGGCCAGGCAGGCAUCAAAAGAAAUAGUCUUGCGCUCAACCAGAAAGUCUGUAAUCAUUUUAAGGGUA [A66G A68G], 0.62.
With GUUAACGGUCAUAGGCCAUGGAAACUAGGAGCACCAUUUCGCUGCCAGUGAAGAAAUGAACAAAAAAAAUCUGGGCCAGGCAGGCAUCAAAAGAAAUAGUCUUGCGCUCCACCAGAAAGUCUGUAAUCAUUUUAAGGGUA [G65A A110C] the figure was 0.19.
As for GUUAACGGUCAUAGGCCAUGGAAACUAGGAGCACCAUUUCGCUGCCAGUGAAGAAAUGAACAAAUAAAAUCUGGGCCAGGCAUGCAUCAAAAGAAAUAGUCUUGCGCUCAACCAGAAAGUCUGUAAUCAUUUUAAGGGUA [G65U G83U], the self-cleavage stood at 0.44.
With GUUAACGGUCAUAGGCCAUGGAAACUAGGAGCACCAUUUCGCUGCCAGUGAAGAAAUGAACAAAGCAAAUCUGGGCCAGGCAGGCAUCAAAGGAAAUAGUCUUGCGCUCAACCAGAAAGUCUGUAAUCAUUUUAAGGGUA [A66C A92G] the figure was 1.21.
Take GUUAACGGUCAUAGGCCAUGGAAACUAGGAGCACCAUUUCGCUGCCAGUGAAGAAAUGAACAAUGAAAAUCUGGGCCAGGCAGGCAUCAAAAGAAAUAGUCUUGCGCUCAACCAGAAAGGCUGUAAUCAUUUUAAGGGUA [A64U U120G]: the self-cleavage turned out to be 1.63.
In the case of GUUAACGGUCAUAGGCCAUGGAAACUAGGAGCACCAUUUCGCUGCCAGUGAAGAAAUGAACAAAGCAAAUCUGGGCCAGGCAGGCAUCAAAAGAAAUAGUCUUGCGCUCAACCAGAAAGUCUGUAACCAUUUUAAGGGUA [A66C U127C] it was 0.14; in that of GUUAACGGUCAUAGGCCAUGGAAACUAGGAGCACCAUUUCGCUGCCAGUGAAGAAAUGAACAAAAAAAAUCUGGGCCAGGCAGGCAUCAAAAGAAAUAGUCUUGCGCUCAACCAGAAAGUCUGAAAUCAUUUUAAGGGUA [G65A U124A], 1.36.
With GUUAACGGUCAUAGGCCAUGGAAACUAGGAGCACCAUUUCGCUGCCAGUGAAGAAAUGAACAAAGCAAAUCUGGGCCAGGCAGGCAUCAAAAGAAAUAGUCUUGCGCUCAACCAGAAAGUCUGUAAUCAUUCUAAGGGUA [A66C U132C] the figure was 1.6; with GUUAACGGUCAUAGGCCAUGGAAACUAGGAGCACCAUUUCGCUGCCAGUGAAGAAAUGAACAAUGAAAAUCUGGGCCAGGCAGGCAUCAAAAGAAAUAGUCUUGCGCUCAACCAGAAAGUCUGUAAUCAUUCUAAGGGUA [A64U U132C], 1.49.
With GUUAACGGUCAUAGGCCAUGGAAACUAGGAGCACCAUUUCGCUGCCAGUGAAGAAAUGAACAAAUAAAAUCUGGGCCAGGCAGGCAUCAAAAGAAAUAGUCUUGCGCUCAACCAGAAAGUCUGUAAUCAUUUUAAGGAUA [G65U G138A] the figure was 1.24.
In the case of GUUAACGGUCAUAGGCCAUGGAAACUAGGAGCACCAUUUCGCUGCCAGUGAAGAAAUGAACAAAGCAAAUCUGGGCCGGGCAGGCAUCAAAAGAAAUAGUCUUGCGCUCAACCAGAAAGUCUGUAAUCAUUUUAAGGGUA [A66C A78G], the self-cleavage is 0.32.
In the case of GUUAACGGUCAUAGGCCAUGGAAACUAGGAGCACCAUUUCGCUGCCAGUGAAGAAAUGAACAAAAAAAAUCUGGGCCAGGCAGGCAUCAAAAGAAAUAGUCUUGCGCUCAACCAGAAAGUCUGUAAUCACUUUAAGGGUA [G65A U130C] it was 0.71.
With GUUAACGGUCAUAGGCCAUGGAAACUAGGAGCACCAUUUCGCUGCCAGUGAAGAAAUGAACAAAAAAGAUCUGGGCCAGGCAGGCAUCAAAAGAAAUAGUCUUGCGCUCAACCAGAAAGUCUGUAAUCAUUUUAAGGGUA [G65A A68G] the figure was 1.57.
With GUUAACGGUCAUAGGCCAUGGAAACUAGGAGCACCAUUUCGCUGCCAGUGAAGAAAUGAACAAAUAAAAUCUGGGCCAGGCAGGCAUCAGAAGAAAUAGUCUUGCGCUCAACCAGAAAGUCUGUAAUCAUUUUAAGGGUA [G65U A90G] the figure was 0.96.
In the case of GUUAACGGUCAUAGGCCAUGGAAACUAGGAGCACCAUUUCGCUGCCAGUGAAGAAAUGAACAAACAAAAUCUGGGCCAGGCAGGCAUCUAAAGAAAUAGUCUUGCGCUCAACCAGAAAGUCUGUAAUCAUUUUAAGGGUA [G65C A89U], the self-cleavage was 2.04.
In the case of GUUAACGGUCAUAGGCCAUGGAAACUAGGAGCACCAUUUCGCUGCCAGUGAAGAAAUGAACAAAAAAAAUCUGGGCCAGGCAGGCAUCAAAAGAAAUAGUCUUGCGCUCAACCAGAAGGUCUGUAAUCAUUUUAAGGGUA [G65A A118G], the self-cleavage was 1.57.
With GUUAACGGUCAUAGGCCAUGGAAACUAGGAGCACCAUUUCGCUGCCAGUGAAGAAAUGAACAAAGCAAAUCUGGGCCAGGCAGGCAUCAAAAGAGAUAGUCUUGCGCUCAACCAGAAAGUCUGUAAUCAUUUUAAGGGUA [A66C A95G], the self-cleavage was 1.92.
For GUUAACGGUCAUAGGCCAUGGAAACUAGGAGCACCAUUUCGCUGCCAGUGAAGAAAUGAACAAUGAAAAUCUGGGCCAGGCAGGCAUCAAAAGAAAUAGUCUUGCGCUCAACCAGAAAGUCUGUAAUCAUCUUAAGGGUA [A64U U131C], the self-cleavage was 1.58.
In the case of GUUAACGGUCAUAGGCCAUGGAAACUAGGAGCACCAUUUCGCUGCCAGUGAAGAAAUGAACAAAUAAAAUCUGGGCCAGGCAGGCGUCAAAAGAAAUAGUCUUGCGCUCAACCAGAAAGUCUGUAAUCAUUUUAAGGGUA [G65U A86G] it was 0.19; in that of GUUAACGGUCAUAGGCCAUGGAAACUAGGAGCACCAUUUCGCUGCCAGUGAAGAAAUGAACAAAGGGAAUCUGGGCCAGGCAGGCAUCAAAAGAAAUAGUCUUGCGCUCAACCAGAAAGUCUGUAAUCAUUUUAAGGGUA [A66G A67G], 1.22; in that of GUUAACGGUCAUAGGCCAUGGAAACUAGGAGCACCAUUUCGCUGCCAGUGAAGAAAUGAACAAAGGAAAUCUGGGCCGGGCAGGCAUCAAAAGAAAUAGUCUUGCGCUCAACCAGAAAGUCUGUAAUCAUUUUAAGGGUA [A66G A78G], 0.31.
With GUUAACGGUCAUAGGCCAUGGAAACUAGGAGCACCAUUUCGCUGCCAGUGAAGAAAUGAACAAAAAAAAUCUGGGCCAGGCAGGCAUCAAAAGAAAUAGUCUUGCGCUCAACCAGGAAGUCUGUAAUCAUUUUAAGGGUA [G65A A116G] the figure was 0.45; with GUUAACGGUCAUAGGCCAUGGAAACUAGGAGCACCAUUUCGCUGCCAGUGAAGAAAUGAACAAAGCAAAUCUGGGCCAGGCAGGCAUCAAAAGAAAUAGCCUUGCGCUCAACCAGAAAGUCUGUAAUCAUUUUAAGGGUA [A66C U100C], 1.6; with GUUAACGGUCAUAGGCCAUGGAAACUAGGAGCACCAUUUCGCUGCCAGUGAAGAAAUGAACAAAAAAAAUCUGGGCCAGGCAGGCAUCAAAAGAAAUAGUCUUGCGCUCAACCAGAAAGUCUGUAAUCAUUGUAAGGGUA [G65A U132G], 0.82.
As for GUUAACGGUCAUAGGCCAUGGAAACUAGGAGCACCAUUUCGCUGCCAGUGAAGAAAUGAACAAAAAAAAUCUGGGCCAGGCAGGCAUCAAAAGAAAUAGUCUUGCGCUCAACCAGAAAGUCUGUAAUCAUUCUAAGGGUA [G65A U132C], the self-cleavage came to 0.58.
In the case of GUUAACGGUCAUAGGCCAUGGAAACUAGGAGCACCAUUUCGCUGCCAGUGAAGAAAUGAACAAAAAAAAUCUGGGCCAGGCAGGCAUCAAAAGAAAUAGUCUUGCGCUCAACCAGAAAGUCUGUAAUCAUUUUAAGGGUG [G65A A140G] it was 2.16; in that of GUUAACGGUCAUAGGCCAUGGAAACUAGGAGCACCAUUUCGCUGCCAGUGAAGAAAUGAACAAAAAAAAUCUGGGCCAGGCAGGCAUCAAAAGAAAUAGUCUUGCGCUCAACCAGAAAGUCUGUAGUCAUUUUAAGGGUA [G65A A126G], 1.12.
For GUUAACGGUCAUAGGCCAUGGAAACUAGGAGCACCAUUUCGCUGCCAGUGAAGAAAUGAACAAAAAAAAUCUGGGCCAGGCAGGCAUCAAAAGAAAUAGUCUUGCGCUCAACCAGAAAGUCUGUAUUCAUUUUAAGGGUA [G65A A126U], the self-cleavage worked out at 0.76.
In the case of GUUAACGGUCAUAGGCCAUGGAAACUAGGAGCACCAUUUCGCUGCCAGUGAAGAAAUGAACAAAAAAAAUCUGGGCCAGGCAGGCAUCAAAAGAAAUAGUCUUGCGCUCAACCAGAGAGUCUGUAAUCAUUUUAAGGGUA [G65A A117G], the self-cleavage stood at 0.36.
With GUUAACGGUCAUAGGCCAUGGAAACUAGGAGCACCAUUUCGCUGCCAGUGAAGAAAUGAACAAAAAAAAUCUGGGCCAGGCAGGCAUCAAAAGAAAUAGUCUUGCGCUCAACCAGAUAGUCUGUAAUCAUUUUAAGGGUA [G65A A117U] the figure was 0.6.
In the case of GUUAACGGUCAUAGGCCAUGGAAACUAGGAGCACCAUUUCGCUGCCAGUGAAGAAAUGAACAAAAAAAAUCUGGGCCAGGCAGGCAUCAAAAGAAAUAGUCUUGCGCUCAACCAGAAAGUCUGUAAUCAUUUUAAGGGUA [G65A] it was 1.5.
With GUUAACGGUCAUAGGCCAUGGAAACUAGGAGCACCAUUUCGCUGCCAGUGAAGAAAUGAACAAAUAAAAUCUGGGCCAGGCAGGCAUCAAAAGAAAUAGUCUUGCGCUCAACCAGAAAGUCUGUAAUCAUUUUAAGGGUA [G65U], the self-cleavage stood at 2.
For GUUAACGGUCAUAGGCCAUGGAAACUAGGAGCACCAUUUCGCUGCCAGUGAAGAAAUGAACAAAGGAAAUCUGGGCCAGGCAGGCAUCAAAAGAAAUAGUCUUGCGCUCAACCAGAAAGUCUGUAAUCAUUUUAAGGGUA [A66G], the self-cleavage was 1.09.
With GUUAACGGUCAUAGGCCAUGGAAACUAGGAGCACCAUUUCGCUGCCAGUGAAGAAAUGAACAAAGCAAAUCUGGGCCAGGCAGGCAUCAAAAGAAAUAGUCUUGCGCUCAACCAGAAAGUCUGUAAUCAUUUUAAGGGUA [A66C], the self-cleavage was found to be 1.02.
As for GUUAACGGUCAUAGGCCAUGGAAACUAGGAGCACCAUUUCGCUGCCAGUGAAGAAAUGAACAAAAAAAAUCCGGGCCAGGCAGGCAUCAAAAGAAAUAGUCUUGCGCUCAACCAGAAAGUCUGUAAUCAUUUUAAGGGUA [G65A U72C], the self-cleavage was determined as 0.21.
With GUUAACGGUCAUAGGCCAUGGAAACUAGGAGCACCAUUUCGCUGCCAGUGAAGAAAUGAACAAAAAAAAUCUGGGCCAGGCAGGCAUCAAAAGAAAUAGUCUUGCGCGCAACCAGAAAGUCUGUAAUCAUUUUAAGGGUA [G65A U108G] the figure was 0.01; with GUUAACGGUCAUAGGCCAUGGAAACUAGGAGCACCAUUUCGCUGCCAGUGAAGAAAUGAACAAUGAAAAUCUGGGCCAGGCAGGCAUCAAAAGAAAUAGUCUUGCGCUCAACCAGAAAGUCUGUAAUCACUUUAAGGGUA [A64U U130C], 1.12; with GUUAACGGUCAUAGGCCAUGGAAACUAGGAGCACCAUUUCGCUGCCAGUGAAGAAAUGAACAAUGAAAAUCUGGGCCAGGCAGGCAUCAAAAGAAAUAGUCUUGCGCACAACCAGAAAGUCUGUAAUCAUUUUAAGGGUA [A64U U108A], 0.02.
